From US20240317858A1 (Adimab, published 2024) come the findings set out here.

Substitutions are numbered along the chain they refer to.

In assay [1] the target is T1, Human CD3εδ Fc heterodimer (Hu CD3ε Fc + CD3δ Fc-HIS) (human, UniProt P07766 22-126; P04234 22-100).
T1 construct: range 22-126;range 22-100; Made in HEK 293 cells with a heterologous signal peptide; also called Hu CD3εδ-Fc; CD3εδ Fc-HIS heterodimer; not shown: Fc; Fc followed by HIS tag
In words: BLI (Octet), Fab monovalent, pH 6.0. How it is done: (§1) ForteBio KD measurements (Biolayer interferometry; BLI). ForteBio affinity measurements were performed generally as previously described (Estep, P., et al., High throughput solution-based measurement of antibody-antigen affinity and epitope binning. MAbs, 2013. 5(2): p. 270-8.). Briefly, ForteBio affinity measurements were performed by loading IgGs or CD3εδ Fe-HIS heterodimer onto AHC sensors. Sensors were equilibrated off-line in assay buffer for 30 min and then monitored on-line for 60 seconds for baseline establishment. Sensors with loaded IgGs were exposed to 100 nM antigen (e.g., CD3) for 3 min, afterwards they were transferred to assay buffer for 10 min for off-rate measurement. Sensors loaded with CD3εδ Fe-HIS heterodimer were exposed to 100 nM anti-CD3 Fab for 3 min, afterwards they were transferred to assay buffer for 3 min or 10 min for off-rate measurement. Kinetics were analyzed using the 1:1 binding model. For measuring binding at different pHs, measurements were performed at pre-determined pHs (e.g., pH 7.4 and pH 6.0).
(§2) Anti-CD3 antibodies A001-A005, V002, V004, V007, V009, V010, V013, and V014-V019 were produced as IgG1s in CHO cells, and Fab fragments were generated from IgG1 antibodies by papain digestion and purification as described in Example 2. Human, cynomolgus, rhesus, and mouse CD3εδ Fc heterodimers were produced, and monovalent binding affinity and avidity at pH 7.4 and pH 6.0 were measured using the Octet® HTX instrument (ForteBio) as described in Example 2.
On the technique in general: Biolayer interferometry detects binding as a change in optical thickness at a sensor tip.

Assay [2] has as its target T2, Cynomolgus CD3εδ Fc heterodimer (Cy CD3ε Fc + CD3δ Fc-HIS) (cynomolgus, UniProt Q95LI5 22-117; Q95LI8 22-100).
T2 construct: range 22-117;range 22-100; Made in HEK 293 cells with a heterologous signal peptide; also called Cy CD3εδ-Fc; cyno CD3εδ Fc; not shown: Fc; Fc followed by HIS tag
Kind of assay: BLI (Octet), Fab monovalent, pH 6.0. How it is done: as §1, §2

Assay [3] concerns the target T1, Human CD3εδ Fc heterodimer (Hu CD3ε Fc …). In words: SPR (Biacore), Fab over immobilized CD3εδ Fc, pH 6.0. How it is done:
(§3) Anti-CD3 antibodies A001-A005, V002, V004, V007, V009, V010, V013, and V014-V019 were produced in CHO cells, and Fab fragments were generated from IgG1 antibodies by papain digestion and purification as described in Example 2. Monovalent binding affinity at pH 7.4 and pH 6.0 was measured via surface plasmon resonance (SPR). Briefly, human or cynomolgus CD3εδ Fe heterodimer produced as described in Example 2 was immobilized to a CM5 sensor chip in a Biacore® X100 (Cytiva, previously GE Healthcare Life Sciences) to a response level of ˜500 RUs. Fabs were then injected at 3-fold increasing concentrations, ranging from 0.74-180 nM. The sensor chip was doubly regenerated between cycles using 0.35 M EDTA and 0.1 M NaOH. The resulting data were double reference subtracted and fit to a 1:1 binding model using Biacore® Evaluation Software.

Assay [4] addresses T2, Cynomolgus CD3εδ Fc heterodimer (Cy …). The assay is described as above. How it is done:
as §3

For assay [5], the target named is T1, Human CD3εδ Fc heterodimer (Hu CD3ε Fc …). In words: BLI (Octet), CD3εδ Fc on AHC sensor, 100 nM Fab. How it is done: (§4) Affinity of the anti-CD3 antibodies for CD3 was determined by measuring their kinetic constants (kₒₙ, koff, KD) on ForteBio Octet®. ForteBio affinity measurements were performed generally as previously described (Estep et al., MAbs. 2013 5(2):270-8). […] Sensors were equilibrated off-line in assay buffer for 30 minutes and then monitored on-line for 60 seconds for baseline establishment. For monovalent binding measurement, sensors with loaded CD3εδ Fc were exposed to 100 nM anti-CD3 Fab, as further described in Example 2 below] for 3 minutes, afterwards they were transferred to assay buffer for 3 minutes for off-rate measurement. Kinetics data were fit using a 1:1 binding model in the data analysis software provided by ForteBio.

Assay [6] addresses T2, Cynomolgus CD3εδ Fc heterodimer (Cy …). Kind of assay: BLI (Octet), CD3εδ Fc on AHC sensor, 100 nM Fab. How it is done: as §4
The target in assay [7] is T1, Human CD3εδ Fc heterodimer (Hu CD3ε Fc …). In words: BLI (Octet), Fab monovalent, pH 7.4. How it is done:
as §1, §2

For assay [8], the target named is T2, Cynomolgus CD3εδ Fc heterodimer (Cy …). In words: BLI (Octet), Fab monovalent, pH 7.4. How it is done: as §1, §2
The target of assay [9] is T3, Rhesus CD3εδ Fc heterodimer (rhesus).
T3 construct: extracellular domain; also called Rh CD3εδ-Fc
Kind of assay: BLI (Octet), Fab monovalent, pH 7.4. How it is done:
as §1, §2

In assay [10] the target is T4, Cynomolgus CD3 on HSC-F cells (cynomolgus, UniProt Q95LI5 22-198).
T4 construct: whole, on cells; Target is the endogenous CD3 complex on cells; also called Cyno CD3 HSC-F cells; Cyno CD3+ HSC-F cells
T4 sequence (Q95LI5 22-198): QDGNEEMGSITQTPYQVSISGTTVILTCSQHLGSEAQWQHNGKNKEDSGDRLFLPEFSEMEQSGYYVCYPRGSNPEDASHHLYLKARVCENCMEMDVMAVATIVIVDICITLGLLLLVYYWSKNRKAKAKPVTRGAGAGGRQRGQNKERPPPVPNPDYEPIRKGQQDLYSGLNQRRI
Kind of assay: flow cytometry, 100 nM IgG. How it is done: (§5) Specificity of the anti-CD3 antibodies for human CD3+ Jurkat cells and Cynomolgus monkey HSC-F cells was determined using a FACS cell binding assay. Briefly, cells were thawed and washed with cold PBSF buffer (PBS+0.1% BSA, pH 7.4). About 200,000 cells were aliquoted per well of a 96-well plate and pelleted by centrifugation (5 minutes at 500×g). The cells were washed and resuspended in 100 μl PBSF with CHO-produced anti-CD3 IgG antibody (100 nM). The mixture (cells+antibody) was incubated for 20 minutes on ice, then washed twice with PBSF. Cells were resuspended in 50 μl of propidium iodide (1:500 dilution) and anti-human IgG-RPE (1:100 dilution) prepared in PBSF, then incubated for 20 minutes on ice in the dark before cells were washed twice with PBSF. Binding was analyzed on FACS Canto II. Also shown are results using cells without CD3 [CHO-S cells, Jurkat CD3 knockout (CD3−) cells, and HEK cells] for comparison, including results with Jurkat CD3-cells combined with anti-CD3 antibody Fab fragments (100 nM).

Assay [11] deals with T5, Human CD3 on CD3+ Jurkat cells (human, UniProt P07766 23-207).
T5 construct: whole, on cells; Target is the endogenous CD3 complex on cells; also called Human CD3+ Jurkat cells
T5 sequence (P07766 23-207): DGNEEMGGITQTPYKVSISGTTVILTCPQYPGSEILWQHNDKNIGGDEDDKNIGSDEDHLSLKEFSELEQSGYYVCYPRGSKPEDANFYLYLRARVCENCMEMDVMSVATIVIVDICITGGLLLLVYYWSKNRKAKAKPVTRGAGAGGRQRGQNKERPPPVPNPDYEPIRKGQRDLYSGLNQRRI
Kind of assay: flow cytometry, 100 nM IgG. How it is done: as §5
In general terms: In flow cytometry, cells or beads pass a laser one at a time.

Assay [12] deals with T1, Human CD3εδ Fc heterodimer (Hu CD3ε Fc …). In words: SPR (Biacore), Fab over immobilized CD3εδ Fc, pH 7.4. How it is done:
as §3

The target of assay [13] is T2, Cynomolgus CD3εδ Fc heterodimer (Cy …). Described as above. How it is done:
as §3

T1 sequence (P07766 22-126, stated change not applied, form in doubt, chain 1 of 2): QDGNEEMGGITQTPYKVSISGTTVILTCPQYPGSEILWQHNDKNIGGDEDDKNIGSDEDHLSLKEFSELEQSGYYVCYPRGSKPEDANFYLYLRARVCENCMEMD
T1 sequence (P04234 22-100, stated change not applied, form in doubt, chain 2 of 2): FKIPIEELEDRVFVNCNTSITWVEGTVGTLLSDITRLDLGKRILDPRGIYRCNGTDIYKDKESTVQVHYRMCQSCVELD
T2 sequence (Q95LI5 22-117, stated change not applied, form in doubt, chain 1 of 2): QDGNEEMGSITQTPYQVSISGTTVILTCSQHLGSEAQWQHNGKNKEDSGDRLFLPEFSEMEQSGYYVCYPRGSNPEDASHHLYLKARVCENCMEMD
T2 sequence (Q95LI8 22-100, stated change not applied, form in doubt, chain 2 of 2): as the sequence (P04234 22-100, stated change not applied, form in doubt, chain 2 of 2) above, with I5V, N15K, I20V, S32T, D33N, I34N, T64A, S74N counted along it

B1: Antibody No. V002 (ADI-67445) Fab (Fab, V domains shown)
VH: QVQLVQSGAEVKKPGASVKVSCKASGFNIKDYYMHWVRQAPGQRLEWMGWIDLENAETIYDAKFQDRVTITRDTSASTAYMELSSLRSEDTAVYYCARDAYGRYFYDEWGQGTLVTVSS
VL: DIVMTQSPDSLAVSLGERATINCKSSQSLLNARTGKNYLAWYQQKPGQPPKLLIYWASTRESGVPDRFSGSGSGTDFTLTISSLQAEDVAVYYCKQSYSRRTFGGGTKVEIK
notes: Fab by papain digestion of the IgG1
Consider B1, for which the Kd in assay [1] turned out to be 8.8 nM; in assay [2], 8 nM; in assay [3] it was 4.2 nM; in [4] it was 3.3 nM; in assay [5] it was 7.84 nM; in assay [6], 7.33 nM. For the same molecule, the Kd was 13 nM in assay [7], 12 nM in assay [8] and 15 nM in assay [9].

B2: Antibody No. V005 (ADI-67448) IgG1 (antibody, V domains shown)
VH: B1 VH with K30D, A56D, E57N, D66G, E108V
VL: B1 VL
notes: IgG1, CHO-produced; VH as printed is identical to that of V004
Take B2: the figures for the MFI in assay [10] and in [11] were 5940 MFI and 3150 MFI, respectively.

B3: Antibody No. V006 (ADI-67449) IgG1 (antibody, V domains shown)
VH: B1 VH with I29D, E108V
VL: B1 VL
notes: IgG1, CHO-produced
Turning to B3, the MFI in assay [10] is 5750 MFI; in assay [11] it was 3040 MFI.

B4: Antibody No. V011 (ADI-70328) IgG1 (antibody, V domains shown)
VH: B1 VH with K30D, M48I, A56D, E57N, I59V, D66G, E108V
VL: B1 VL with T5S, E61S, K95V, S99F
notes: IgG1, CHO-produced
With B4, the MFI was 5910 MFI in assay [10] and 3000 MFI in [11].

B5: Antibody No. V012 (ADI-70329) IgG1 (antibody, V domains shown)
VH: B1 VH with I29D, M48I, I59V, E108V
VL: B1 VL with T5S, E61S, K95V, S99F
notes: IgG1, CHO-produced
With B5, the MFI in [10] was 5800 MFI; in [11], 3020 MFI.

B6: Antibody No. V009 (ADI-70326) Fab (Fab, V domains shown)
VH: B1 VH with N28D, M48I, D52E, E57D, I59V, D66G, E108V
VL: B1 VL with T5S, E61S, K95V, S99F
notes: as for B1
Consider B6, for which the Kd came out at 1.2 nM in [1]; 1.6 nM in assay [2]; 1.1 nM in [3]; 0.24 nM in assay [4]; 0.81 nM in [5]; 0.81 nM in [6]. The Kd in assay [7] turned out to be 1.6 nM; in [8] it was 1.9 nM; in assay [9], 1.8 nM; in assay [12] it was 0.14 nM; in assay [13] it was 0.15 nM.

B7: Antibody No. V003 (ADI-67446) IgG1 (antibody, V domains shown)
VH: B1 VH with N28D, D52E, E57D, D66G, E108V
VL: B1 VL
notes: IgG1, CHO-produced
Take B7: the MFI is 6010 MFI in [10] and 3020 MFI in assay [11].

B8: Antibody No. V010 (ADI-70327) Fab (Fab, V domains shown)
VH: B1 VH with N28D, M48I, D52E, A56D, E57D, I59V, D66G, E108V
VL: B1 VL with T5S, E61S, K95V, S99F
notes: as for B1
As to B8, the Kd is 2 nM in assay [1]; 1.9 nM in assay [2]; 3.1 nM in [3]; 0.82 nM in assay [4]; 1.92 nM in assay [5]; 1.91 nM in assay [6]. For the same molecule, the Kd in [7] worked out at 4.1 nM; in assay [8] it was 3.4 nM; in [9] it was 4.4 nM; in assay [12], 0.39 nM; in assay [13], 0.45 nM.

B9: Antibody No. V008 (ADI-70325) IgG1 (antibody, V domains shown)
VH: B1 VH with M48I, I59V, E108V
VL: B1 VL with T5S, E61S, K95V, S99F
notes: IgG1, CHO-produced
Regarding B9, the MFI was 6400 MFI in [10] and 3200 MFI in assay [11].

By Kd is commonly meant the concentration at which binding is half-saturated.
